Laboratory results from the supplement of paper PMC10126150.
± gives the standard deviation of the averaged measurements.

Test system: ATP
Assay: switch fluorescence ratio, 500 uM ATP over buffer (Cy3 cluster intensity, sum of 5 cycles each) (fold (ratio)); higher = stronger signal-on switching upon ATP binding; sequences stand for … in TCGTCGGCAGCGTCAGATGTGTATAAGAGACAGTTTTTTTTTTTTTTTTTTTTTTTTT…TC
Details: aptamer strand: ATP DNA aptamer (quencher-CACCTGGGGGAGTATTGCGGAGGAAGG + anchor), 100 nM annealed; ATP concentration: 500 uM
Method in brief: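 Five buffer/ATP imaging cycles were run on Cy3-labelled switching-strand clusters on a modified Illumina MiSeq flow-cell, with NaOH stripping and re-annealing between cycles. In each cycle, clusters annealed to 100 nM quencher-labelled ATP aptamer were imaged in selection buffer, then after 15 min with 500 uM ATP at 22 °C. Per cluster, the fluorescence ratio is summed target-cycle over summed buffer-cycle Cy3 intensity, averaged per switch-domain sequence. Only clusters within 100-1000 RFU were kept.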
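Also: ATP exposure 15 min at 22 °C before imaging.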

Sequence	switch fluorescence ratio
GGGGGAGCCC	0.9896 ± 0.0091
GGGGGAGGGA	0.997 ± 0.04
GGGGGAGTAA	1.05 ± 0.15
GGGGGAGTCA	1 ± 0.056
GGGGGAGTCG	1.02 ± 0.048
GGGGGATATC	0.994 ± 0.06
GGGGGATATG	0.984 ± 0.027
GGGGGATGAT	0.9889 ± 0.007
GGGGGATGGG	0.998 ± 0.032
GGGGGCAATC	2.84 ± 0.54
GGGGGCACGG	1.01 ± 0.012
GGGGGCACTT	1.008 ± 0.0045
GGGGGCCCCG	1 ± 0.013
GGGGGCCGGA	1.01 ± 0.048
GGGGGCCGGC	1.028 ± 0.0031
GGGGGCCTAA	1 ± 0.028
GGGGGCCTGG	0.979 ± 0.019
GGGGGCGCCG	1.01 ± 0.097
GGGGGCGCGT	1.02 ± 0.038
GGGGGCGGGA	1.02 ± 0.059
GGGGGCGGTA	1.02 ± 0.059
GGGGGCGTAC	1.06 ± 0.083
GGGGGCGTAT	1.051 ± 0.0072
GGGGGCGTTT	1.01 ± 0.045
GGGGGCTTCG	0.992 ± 0.048

Sequence	switch fluorescence ratio
GGGGGCTTTT	1.01 ± 0.034
GGGGGGAACT	0.987 ± 0.022
GGGGGGAATG	1 ± 0.03
GGGGGGAGCA	0.992 ± 0.018
GGGGGGAGGT	1.02 ± 0.065
GGGGGGATCC	0.996 ± 0.044
GGGGGGATTA	0.992 ± 0.035
GGGGGGCAGT	1 ± 0.023
GGGGGGCATG	0.992 ± 0.035
GGGGGGCCAG	1.01 ± 0.04
GGGGGGCCCT	0.996 ± 0.028
GGGGGGCCTG	0.982 ± 0.038
GGGGGGCTGC	0.978 ± 0.036
GGGGGGGAAG	1.01 ± 0.087
GGGGGGGACA	0.984 ± 0.031
GGGGGGGACC	0.999 ± 0.017
GGGGGGGAGG	0.993 ± 0.029
GGGGGGGAGT	0.995 ± 0.02
GGGGGGGCAG	0.986 ± 0.017
GGGGGGGCTA	0.9868 ± 0.0035
GGGGGGGCTG	1.06 ± 0.4
GGGGGGGGA	1.05 ± 0.026
GGGGGGGGTC	0.989 ± 0.034
GGGGGGTACG	1 ± 0.05
GGGGGGTCAA	0.967 ± 0.033

Sequence	switch fluorescence ratio
GGGGGGTGCG	0.999 ± 0.019
GGGGGGTTGC	0.967 ± 0.035
GGGGGTAGCT	1 ± 0.017
GGGGGTATAG	1.02 ± 0.022
GGGGGTATTT	1 ± 0.018
GGGGGTCACG	0.978 ± 0.028
GGGGGTCCAT	0.954 ± 0.031
GGGGGTCCGA	0.9855 ± 0.0042
GGGGGTCCTA	0.977 ± 0.0099
GGGGGTCTTT	0.99 ± 0.023
GGGGGTGAAC	0.98 ± 0.029
GGGGGTGACA	0.9931 ± 0.0073
GGGGGTGCAT	0.9638 ± 0.0088
GGGGGTGGAT	1 ± 0.025
GGGGGTGGCA	0.998 ± 0.042
GGGGGTGGCG	0.973 ± 0.021
GGGGGTGGGG	1.01 ± 0.037
GGGGGTGGTG	0.988 ± 0.038
GGGGGTGTAA	0.986 ± 0.018
GGGGGTTAAG	0.988 ± 0.029
GGGGGTTAAT	1.013 ± 0.0037
GGGGGTTGCG	0.979 ± 0.015
GGGGTAAAAC	1.02 ± 0.023
GGGGTAAGAA	0.981 ± 0.034
GGGGTAATTT	1.02 ± 0.035

Sequence	switch fluorescence ratio
GGGGTACAAT	1.07 ± 0.041
GGGGTACCAC	1.31 ± 0.4
GGGGTACGCG	0.984 ± 0.024
GGGGTAGAAG	1.004 ± 0.0016
GGGGTAGACT	0.995 ± 0.018
GGGGTAGATG	0.9985 ± 0.0033
GGGGTAGCGA	0.992 ± 0.051
GGGGTAGGAC	1.01 ± 0.017
GGGGTAGGGA	1 ± 0.019
GGGGTAGGGC	1.04 ± 0.057
GGGGTAGGTT	1.02 ± 0.053
GGGGTATCGA	0.998 ± 0.039
GGGGTATGCT	1.03 ± 0.032
GGGGTATGTC	1.02 ± 0.053
GGGGTATGTT	0.99 ± 0.036
GGGGTATTGA	1.03 ± 0.037
GGGGTATTGG	0.993 ± 0.035
GGGGTATTGT	1.007 ± 0.0034
GGGGTCAGGT	1 ± 0.024
GGGGTCCTTA	1 ± 0.018
GGGGTCGATG	0.9847 ± 0.0042
GGGGTCGGTG	0.969 ± 0.03
GGGGTGACGT	1.02 ± 0.031
GGGGTGCTTT	0.987 ± 0.017
GGGGTGGACG	1.07 ± 0.021

Sequence	switch fluorescence ratio
GGGGTGGATA	0.996 ± 0.027
GGGGTGGGTG	1.03 ± 0.039
GGGGTGTACC	0.985 ± 0.033
GGGGTGTAGA	1.02 ± 0.03
GGGGTGTTAG	1.02 ± 0.012
GGGGTGTTGT	1 ± 0.04
GGGGTTAAAG	0.977 ± 0.022
GGGGTTACAG	1.01 ± 0.013
GGGGTTAGCT	0.987 ± 0.018
GGGGTTATAG	1.04 ± 0.12
GGGGTTATTC	0.986 ± 0.026
GGGGTTCACC	0.957 ± 0.023
GGGGTTCACT	1.01 ± 0.029
GGGGTTCGTA	0.966 ± 0.028
GGGGTTGAAA	0.973 ± 0.083
GGGGTTGAAT	1.01 ± 0.046
GGGGTTGGCG	1.117 ± 0.0064
GGGGTTGGGA	0.971 ± 0.025
GGGGTTGGTC	1.04 ± 0.048
GGGGTTGGTT	0.995 ± 0.044
GGGGTTGTCA	0.99 ± 0.058
GGGGTTGTCT	1.01 ± 0.072
GGGGTTTAGT	1.01 ± 0.022
GGGGTTTATC	1.01 ± 0.04
GGGGTTTCCT	1.11 ± 0.16

Sequence	switch fluorescence ratio
GGGGTTTGAT	0.996 ± 0.021
GGGGTTTGGA	0.987 ± 0.024
GGGGTTTTAA	0.988 ± 0.02
GGGGTTTTGT	1.01 ± 0.011
GGGTAAATTG	1.041 ± 0.0068
GGGTAAATTT	0.996 ± 0.015
GGGTAACTGG	1 ± 0.027
GGGTAAGAGT	1 ± 0.043
GGGTAATGCG	1.06 ± 0.058
GGGTAATTGA	0.99 ± 0.032
GGGTACGCAC	1.82 ± 0.034
GGGTACGGGA	1.06 ± 0.069
GGGTACGTCA	1.03 ± 0.071
GGGTACGTCG	0.996 ± 0.019
GGGTACTATT	0.982 ± 0.031
GGGTACTGGG	1 ± 0.034
GGGTAGACTT	0.996 ± 0.013
GGGTAGGATA	1.01 ± 0.012
GGGTAGGCTT	0.965 ± 0.023
GGGTAGTCGG	0.993 ± 0.032
GGGTAGTGCG	0.9812 ± 0.0055
GGGTATCCGT	0.979 ± 0.032
GGGTATGGTA	1 ± 0.023
GGGTATGTA	1.01 ± 0.03
GGGTATTGTG	0.994 ± 0.033

Sequence	switch fluorescence ratio
GGGTATTTGT	1 ± 0.03
GGGTATTTTT	0.994 ± 0.014
GGGTCACAAA	0.978 ± 0.01
GGGTCATAGT	1.012 ± 0.0094
GGGTCATGTT	1 ± 0.015
GGGTCATTGA	0.998 ± 0.024
GGGTCCATGA	1.03 ± 0.05
GGGTCCGAAT	1.02 ± 0.016
GGGTCGGCCG	0.983 ± 0.033
GGGTCGGGTA	1.04 ± 0.017
GGGTCTCAGT	0.994 ± 0.032
GGGTCTGAGT	0.9621 ± 0.009
GGGTCTGTTG	0.975 ± 0.013
GGGTCTTTGG	0.97 ± 0.023
GGGTGAAAAC	1.03 ± 0.014
GGGTGAAAGG	0.996 ± 0.025
GGGTGAAATT	0.986 ± 0.035
GGGTGAATGG	0.9976 ± 0.0016
GGGTGAGATC	1.02 ± 0.012
GGGTGAGGAG	0.998 ± 0.025
GGGTGAGGTA	0.97888 ± 0.00072
GGGTGAGGTG	0.98 ± 0.068
GGGTGATCGG	0.984 ± 0.023
GGGTGATTTT	0.992 ± 0.049
GGGTGCTGCC	1 ± 0.037

Sequence	switch fluorescence ratio
GGGTGCTGTG	1 ± 0.034
GGGTGGACCT	1.13 ± 0.048
GGGTGGCAAG	0.996 ± 0.03
GGGTGGCCTG	1.03 ± 0.077
GGGTGGGCAT	1.03 ± 0.013
GGGTGGGCGT	1.05 ± 0.043
GGGTGGGGTC	1 ± 0.034
GGGTGGGTGC	1.02 ± 0.048
GGGTGGTAGG	1 ± 0.028
GGGTGGTGCT	0.978 ± 0.021
GGGTGGTTAC	0.99 ± 0.044
GGGTGTACCT	1.039 ± 0.0043
GGGTGTGCAT	1.04 ± 0.016
GGGTGTGGGG	0.989 ± 0.046
GGGTGTGGGT	0.965 ± 0.026
GGGTGTTCCT	0.989 ± 0.039
GGGTGTTTCT	1.01 ± 0.028
GGGTTAAAGG	1 ± 0.015
GGGTTAAGTA	0.993 ± 0.031
GGGTTAATAC	1.29 ± 0.069
GGGTTAATGG	0.986 ± 0.011
GGGTTACAGC	1 ± 0.026
GGGTTATGTT	0.977 ± 0.024
GGGTTCATTG	0.974 ± 0.033
GGGTTCTATG	1.004 ± 0.0042
